Results: PMC5159498, “IQGAP1 Interaction with RHO Family Proteins Revisited” (The Journal of Biological Chemistry, 2016)
Positions count from the first letter of the chain named.

Assays:
Conditions in all cases: both partners purified
[1] = biological target: T1, IQGAP1 GRD1-RGCT S1443E (aa 877-1558) (human, UniProt P46940 877-1558, S1443E); test: stopped-flow fluorometry; tGppNHp (tamra-GppNHp)-bound CDC42 or CDC42 Q61L (0.2 μM) rapidly mixed with IQGAP1 variant (2-10 μM GRD1-CT for Q61L); Kd = koff/kon; 30 mM Tris-HCl pH 7.5, 10 mM KH2PO4/K2HPO4, 5 mM MgCl2, 3 mM DTT
T1 construct: human IQGAP1 aa 877-1558 with the phosphomimetic mutation S1443E (printed as S1143E in the methods, S1443E everywhere else), from the vector pET46 EkLIC; source: E. coli (pLysS BL21(DE3), CodonPlusRIL or BL21(Rosetta)), purified (Ni-NTA, gel filtration)
T1 sequence (looked up): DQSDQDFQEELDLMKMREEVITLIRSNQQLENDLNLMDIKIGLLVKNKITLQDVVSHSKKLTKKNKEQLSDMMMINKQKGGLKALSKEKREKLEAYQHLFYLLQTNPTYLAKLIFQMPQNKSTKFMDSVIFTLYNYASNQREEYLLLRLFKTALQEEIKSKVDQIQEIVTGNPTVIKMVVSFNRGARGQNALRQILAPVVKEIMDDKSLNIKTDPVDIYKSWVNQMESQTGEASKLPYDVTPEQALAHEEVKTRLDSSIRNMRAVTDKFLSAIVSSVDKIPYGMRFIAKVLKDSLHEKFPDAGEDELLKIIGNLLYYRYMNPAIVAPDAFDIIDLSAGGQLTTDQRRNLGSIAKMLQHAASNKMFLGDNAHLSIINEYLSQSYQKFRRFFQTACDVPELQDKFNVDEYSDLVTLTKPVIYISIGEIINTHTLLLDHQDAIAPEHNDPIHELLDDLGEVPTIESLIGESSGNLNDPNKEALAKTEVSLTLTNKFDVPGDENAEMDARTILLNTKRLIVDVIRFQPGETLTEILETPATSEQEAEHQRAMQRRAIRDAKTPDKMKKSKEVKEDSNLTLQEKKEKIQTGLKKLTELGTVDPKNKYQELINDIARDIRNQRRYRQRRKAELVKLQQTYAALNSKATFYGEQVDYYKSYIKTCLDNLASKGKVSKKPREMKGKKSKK

[2] = biological target: T2, IQGAP1 GRD1-CT (aa 863-1657) (human, UniProt P46940 863-1657); test: as above
T2 construct: human IQGAP1, GRD, RGCT and CT domains, aa 863-1657; The GST tag was cleaved 'if needed'; also called C-terminal half of IQGAP1; C-terminal 795 amino acids of IQGAP1
T2 sequence (looked up): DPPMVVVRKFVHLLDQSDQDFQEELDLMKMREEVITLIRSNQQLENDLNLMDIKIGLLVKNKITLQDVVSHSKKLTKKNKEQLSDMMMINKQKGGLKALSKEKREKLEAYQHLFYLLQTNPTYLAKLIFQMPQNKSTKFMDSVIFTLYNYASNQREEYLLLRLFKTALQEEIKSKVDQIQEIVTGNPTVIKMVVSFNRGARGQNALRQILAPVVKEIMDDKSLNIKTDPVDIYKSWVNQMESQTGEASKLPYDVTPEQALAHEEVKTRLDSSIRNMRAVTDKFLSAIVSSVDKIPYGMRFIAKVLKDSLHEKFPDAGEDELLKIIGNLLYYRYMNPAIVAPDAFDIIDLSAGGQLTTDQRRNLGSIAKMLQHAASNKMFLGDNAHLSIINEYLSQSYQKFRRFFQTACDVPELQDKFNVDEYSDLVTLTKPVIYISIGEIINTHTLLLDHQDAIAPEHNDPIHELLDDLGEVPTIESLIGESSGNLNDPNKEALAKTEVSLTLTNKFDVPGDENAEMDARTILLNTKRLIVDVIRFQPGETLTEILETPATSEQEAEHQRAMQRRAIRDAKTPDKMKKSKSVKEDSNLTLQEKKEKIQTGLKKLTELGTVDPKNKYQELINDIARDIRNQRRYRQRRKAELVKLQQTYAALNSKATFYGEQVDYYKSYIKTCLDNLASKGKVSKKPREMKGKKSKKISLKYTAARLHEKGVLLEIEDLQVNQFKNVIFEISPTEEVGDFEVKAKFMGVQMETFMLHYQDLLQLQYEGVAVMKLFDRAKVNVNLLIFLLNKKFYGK

[3] = biological target: T3, IQGAP1 GRD1-RGCT S1441E (aa 877-1558) (human, UniProt P46940 877-1558, S1441E); test: fluorescence polarisation; IQGAP1 variant titrated to mGppNHp-bound RHO protein (1 μM); equilibrium Kd (eKd), quadratic fit; 30 mM Tris/HCl pH 7.5, 150 mM NaCl, 5 mM MgCl2, 3 mM DTT, 25 °C
T3 construct: human IQGAP1 aa 877-1558 with the phosphomimetic mutation S1441E, from the vector pET46 EkLIC; source: E. coli (pLysS BL21(DE3), CodonPlusRIL or BL21(Rosetta)), purified (Ni-NTA, gel filtration)
T3 sequence (looked up): T1 sequence (looked up) with S565E, E567S

B1: CDC42 (aa 1-178) (domain or fragment)
chain: not shown
notes: human CDC42, C-terminally truncated, aa 1-178; Loaded non-covalently with mGppNHp, tGppNHp, mGDP or non-fluorescent GppNHp; the nucleotide is named in the format of each assay; also called CDC42^WT; CDC42-mGppNHp
- Kd [1]: 4.19 µM
- Kd [2]: 0.38 µM
- Kd [3]: 3.6 µM
